Source: patent US9624471B2, “Methods for maturing cardiomyocytes and uses thereof” (UNIVERSITY OF WASHINGTON THROUGH ITS CENTER FOR …, priority 2013, dated 2017)

How the values were obtained:
[1] = tested on: IMR90 iPSC-CMs; assay: let-7 over-expression in IMR90 iPSC derived cardiomyocytes, qPCR; type: cell-based; conditions: for let-7 over expression relative to empty vector (EV) control: pLKO-lentiviral OE for up to 2 weeks; for cardiomyocyte maturation markers expression / let-7 targets (lin28 and HMGA2) expression: qPCR
Description: FIGS. 19A-19B show let-7 over-expression (OE) in IMR90 iPSC derived cardiomyocytes (IMR90 iPSC-CMs). A pLKO-lentiviral based system was used to overexpress let-7g and let-7i in IMR90-iPSC-CMs for up to 2 weeks. […] Experiments were validated with 3 biological and 3 technical replicates. FIG. 19B qPCR validated the down-regulation of let-7 targets (lin28 and HMGA2) and upregulation of cardiomyocyte maturation markers in let-7i OE and let-7g OE CMs.
Total RNAs were extracted with miRNeasy™ mini kit (QIAGEN™) or using TRIZOL™ (INVITROGEN™). RNA was DNAse treated with DNA-free kit (AMBION™). miR-let-7g and mir-let-7i taqman assays (APPLIED BIOSYSTEMS) were used for miRNAqPCRs following the manufacturer's protocol using RNU66 snoRNA as a loading control. For mRNA qPCR, reverse transcription reaction was carried out using Omniscript™ RT kit (QIAGEN™). Primers for CTNT, MYH7, RYR2, SERCA2 and GJA1 were based on Tulloch et a1^2. Primers for HCN4, KCNJ2, SCN5A, HMGA1, HMGA2, IRS2, INSR, LIN28, SLC27A6 and FABP2, CD36, PPARA, TRIM71, EGR1, CDKN1A were purchased from Real Time Primers. qPCR was performed using SYBR green chemistry and ABI 7300 Real time PCR system. Samples were normalized using GAPDH as a house keeping gene.

[2] = tested on: RUES2-CMs; assay: Immunocytochemistry (α-actinin staining) and morphological analysis of lentivirally transduced cardiomyocytes; type: cell-based, human; conditions: for cell perimeter / cell area: let-7 OE CMs at roughly day 30; for cell perimeter: EV control 108±15 μm, n=50 cells per condition; for cell perimeter / cell area / sarcomere length: P<0.001; for cell area: EV control 380±70 μm^2; for Circularity index (4πArea/(perimeter)^2) / sarcomere length: let-7 OE CMs; for Circularity index (4πArea/(perimeter)^2): EV control 0.41±0.02; for sarcomere length: EV control 1.65±0.02 μm
Protocol: Undifferentiated human embryonic stem cell (hESCs) lines H7 (NIHhESCC-10-0061) and RUES2 (NIHhESC-09-0013) were expanded using mouse embryonic fibroblast-conditioned medium with 5 ng/ml basic fibroblast growth factor. H7-CMs were derived using previously reported protocols^1-3. RUES2-CMs were used for all functional analyses and these were derived using a cardiac progenitor cell differentiation protocol^4 derived from previously reported monolayer directed differentiation methods^1, 5, 6. In brief, this involves the induction of a monolayer of hESCs with activin A and bone morphogenetic protein-4 (BMP4) under serum- and insulin-free conditions. During the early stages of differentiation, the cells were also exposed to the Wnt agonist CHIR 99021 followed by the Wnt antagonist Xav939. From 7 days of in vitro differentiation, the cells were fed every alternate day with serum-free RPMI-B27 plus insulin media. After 20 days of in vitro differentiation, the cells were trypsinized and replated. Only those cell preparations that had at least 70% cardiac troponin T-positive CMs (as observed by flow cytometry) were used for further experiments. For experiments where the H7-CMs were cultured for around a year, the cells were replated after the 3rd and 11th month from day 0. At the 11th month, FACS analysis for cTnT was conducted and the CMs were split into three parts and were cultured as three independent replicates for another 1.5 months after which they were harvested for RNA extraction. IMR90iPSC-CMs cultured for 1 yr were replated at day 20 and split every 2 months for 12 months before harvesting for RNA extraction. To generate engineered cardiac tissue, the inventors used the procedure reported by Tulloch et al.^2 In brief, day 20 CMs are suspended in the collagen gel at 10,000/μl, and rod-shaped constructs of 25 μl (1 mm radius×8 mm length) were generated by casting in a preformed mold and warming to 37° C. The ends of the mold contain Velcro-like micro-fiber loops, and these become impregnated with gel+cell mixture. These tabs allow the constructs to be maintained under static tension, which facilitates alignment and differentiation of the CMs. The constructs were maintained in the serum-free RPMI-B27 plus glutamine media up to 2 weeks. For let-7 overexpression analysis, the CMs were transduced with the virus carrying the pLKO-let-7 or empty vector control pLKO plasmid at day 12 of the directed differentiation protocol. After overnight transduction the virus was removed, cells were rinsed with PBS and new media added. The samples were analyzed at day 30 from the initiation of differentiation.
All morphological analyses were carried out using at least 50 cells. Cells replated in chamber slides were fixed in 4% paraformaldehyde for 15 minutes followed by PBS wash. The fixed cells were blocked for an hour with 1.5% normal goat serum and incubated O/N with mouse alpha actinin (sigma) primary antibody. The primary antibody was rinsed with PBS and incubated with secondary antibody (Alexa fluor 488 [Goat anti mouse]) for an hour followed by nuclear staining using DAPI. For cell area and perimeter measurements, images were acquired and processed using ZEISS™ AXIO fluorescent microscope and AXIOVISION™ software. For sarcomere length, images were acquired and processed using LEICA™ TCS-SPE confocal microscope and LEICA™ software. These confocal images were used to select 1-2 myofibrils per cell with at least ten continuous, well-recognized alpha-actinin bands and divided the length value by the number of sarcomeres. The images were further analyzed using IMAGE J™ software.
For lenti-let-7 OE constructs, Pri-miR-let-7i and pri-miR-let-7g sequence was amplified from H7 genomic DNA using forward primer for let-7i-TCCGCGTGGTCCCGT; reverse primer for let-7i-ATTGTCCTCCGCGGCGC and forward primer for let-7g-AGAGTTCCTCCAGCGCTCC; reverse primer for let-7g-CCCCACTTGGCAGCTGGC, resulting in 153 bp and 154 bp products, respectively. […]

B1: let-7g: human let-7 family miRNA, SEQ ID NO: 9, overexpressed from pLKO lentiviral pri-miR-let-7g construct (nucleic acid, listed as Homo sapiens)
chain: AGGCUGAGGUAGUAGUUUGUACAGUUUGAGGGUCUAUGAUACCACCCGGUACAGGAGAUAACUGUACAGGCCACUGCCUUGCCA
let-7 over expression relative to empty vector (EV) control [1]: ≤ 10 fold
cardiomyocyte maturation markers expression [1]: upregulation
let-7 targets (lin28 and HMGA2) expression [1]: down-regulation
cell perimeter [2]: 302±3 μm
cell area [2]: 980±95 μm^2
Circularity index (4πArea/(perimeter)^2) [2]: 0.12±0.02
sarcomere length [2]: 1.69±0.01 μm

B2: let-7i: human let-7 family miRNA, SEQ ID NO: 10, overexpressed from pLKO lentiviral pri-miR-let-7i construct (nucleic acid, listed as Homo sapiens)
chain: CUGGCUGAGGUAGUAGUUUGUGCUGUUGGUCGGGUUGUGACAUUGCCCGCUGUGGAGAUAACUGCGCAAGCUACUGCCUUGCUA
let-7 over expression relative to empty vector (EV) control [1]: up to 8 fold
cardiomyocyte maturation markers expression [1]: upregulation
let-7 targets (lin28 and HMGA2) expression [1]: down-regulation
cell perimeter [2]: 300±7.4 μm
cell area [2]: 1110±101 μm^2
Circularity index (4πArea/(perimeter)^2) [2]: 0.15±0.04
sarcomere length [2]: 1.70±0.01 μm
